Values belong to the molecule of their own block, whether it stands above or below them.
Columns and labels:
[1] = molecular target: GluCl-EGFP (Caenorhabditis elegans glutamate-gated chloride channel, EGFP gene fusion) (Caenorhabditis elegans) (UniProt G5EBR3); test: SEC
[2] = molecular target: the molecule itself; test: SEC

stoichiometry N [1]: 5
Molecule: GluCl-EGFP (Caenorhabditis elegans glutamate-gated chloride channel, EGFP gene fusion) (from UniProt G5EBR3 21-461) (natural protein)

B1: cASIC463 (chicken acid-sensing ion channel 1a truncated 64 residues from the carboxy terminus), N-terminal eGFP tagged (domain or fragment, Gallus gallus, UniProt Q1XA76 1-463, looked up)
chain: MMDLKVDEEEVDSGQPVSIQAFASSSTLHGISHIFSYERLSLKRVVWALCFMGSLALLALVCTNRIQYYFLYPHVTKLDEVAATRLTFPAVTFCNLNEFRFSRVTKNDLYHAGELLALLNNRYEIPDTQTADEKQLEILQDKANFRNFKPKPFNMLEFYDRAGHDIREMLLSCFFRGEQCSPEDFKVVFTRYGKCYTFNAGQDGKPRLITMKGGTGNGLEIMLDIQQDEYLPVWGETDETSFEAGIKVQIHSQDEPPLIDQLGFGVAPGFQTFVSCQEQRLIYLPPPWGDCKATTGDSEFYDTYSITACRIDCETRYLVENCNCRMVHMPGDAPYCTPEQYKECADPALDFLVEKDNEYCVCEMPCNVTRYGKELSMVKIPSKASAKYLAKKYNKSEQYIGENILVLDIFFEALNYETIEQKKAYEVAGLLGDIGGQMGLFIGASILTVLELFDYAYEVIKHR
stoichiometry N [2]: 3
